# B1: P22 tail accessory (head completion) protein gp4 (natural protein, bacteriophage P22, UniProt P26746 1-166, looked up)
# chain: MQIKTKGDLVRAALRKLGVASDATLTDVEPQSMQDAVDDLEAMMAEWYQDGKGIITGYVFSDDENPPAEGDDHGLRSSAVSAVFHNLACRIAPDYALEATAKIIATAKYGKELLYKQTAISRAKRAPYPSRMPTGSGNSFANLNEWHYFPGEQNADSTTPHDEGNG
# Target: P22 tailspike protein gp9 (bacteriophage P22, UniProt P12528 1-667)
# Assay: cryo-EM structure
binder,measurement,value
B1,binding result,binds
